Our source for the protein stability index values is the supplement of paper PMC10567573.

± gives the standard deviation.

The series is described as follows: protein stability index of a GFP-peptide fusion (GPS, HEK-293T) (PSI 1-6); higher = more stable.
Where [1] appears, read: treatment: DMSO, c terminus: a fixed tail appended.
The mark [2] stands for this setting: treatment: MLN4924 1 uM, 8 h, c terminus: a fixed tail appended.
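Further: 24-mer peptide tiles fused after GFP, lentivirally expressed, FACS-sorted into six equal bins by GFP/DsRed ratio, decoded by Illumina sequencing, PSI is the read-weighted mean bin number.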

As to KAQALRDNSTMGYMMAKKHLEINP [HSP90AB1], the protein stability index runs as follows: under setting [1], 3.39 ± 0.14; under setting [2], 3.5 ± 0.23.
Consider LSMDEKVELYRIKFKESFAEMNRG [COX4I1], for which the protein stability index is, setting by setting: under setting [1], 2.9 ± 0.2; under setting [2], 2.97 ± 0.21.
The matching figures for MSVAIRKRSWEEHVTHWMGQPFNS [DLC1]: 2.41 ± 0.65 and 2.43 ± 0.18.
The matching figures for LPCSSYIDSYDPSTGEVYCRVPNS [ALDH8A1]: 2.65 ± 0.22 and 2.88 ± 0.24.
For TKNKSKHALRKKQLKRQKRDYIHS [FAM9B], in that order: 3.71 ± 0.1 and 3.76 ± 0.1.
In the case of GDMNHEWIGNEWLPSLGLPQYRSY [PPFIA4], the protein stability index runs as follows: under setting [1], 2.41 ± 0.73; under setting [2], 2.8 ± 0.38.
QMMSATAQNREPESVEQLESRIVE [SNX8]: the protein stability index reads like this: under setting [1], 5.37 ± 0.17; under setting [2], 5.56 ± 0.24.
Turning to LGKITFIRNSRPLVKKVEEDEAGG [UFD1], the protein stability index reads like this: under setting [1], 3.99 ± 0.34; under setting [2], 3.94 ± 0.25.
The matching figures for AVIQHRPSRQYATLDVYNPFETRE [SCAMP3]: 3.42 ± 0.23 and 3.39 ± 0.27.
YAAIVAVVAVHVVLALFVYVAWNE [VMA21]: the protein stability index is, setting by setting: under setting [1], 2.08 ± 0.31; under setting [2], 2.1 ± 0.11.
Regarding EVDEEGFTVRPDVTQNSTAEPSRF [FCHO1], the protein stability index reads like this: under setting [1], 5.26 ± 0.13; under setting [2], 5.26 ± 0.2.
The matching figures for LSLIARFSPIAIDGMSGLAGVGLS [ELAVL3]: 2.7 ± 0.73 and 2.48 ± 0.42.
For FQRRNMIEPRERAKFKRKYKVKLV [NOP53], in that order: 2.87 ± 0.46 and 3.39 ± 0.58.
The matching figures for KSYPSSELRNMCDEHIASEEPAEK [CLCN6]: 5.53 ± 0.2 and 5.44 ± 0.27.
SRLRFLNLGRMIDWVPVESLLRPL [ZER1] displayed a protein stability index under setting [1] of 2.16 ± 0.13 and a protein stability index under setting [2] of 2.24 ± 0.25.
Regarding YPSVILRDPLQTDTLQNDYFAIKQ [ETS1], the protein stability index reads like this: under setting [1], 3.1 ± 0.41; under setting [2], 3.3 ± 0.21.
For EAWYEDLQEVLSSDENGGTYVSPP [DDIT3], in that order: 4.89 ± 0.11 and 4.93 ± 0.15.
For KAFLTKTMLIVHHRTHTGERPYGC [ZNF649], in that order: 2.45 ± 0.3 and 2.03 ± 0.23.
Turning to FDGPEAWGVCEPQREEVEERMWAA [ZER1], the protein stability index is, setting by setting: under setting [1], 3.43 ± 0.71; under setting [2], 4 ± 0.53.
For EDDRDGLLAEREQEEAIAQFPYVE [TMEM106C], in that order: 5.5 ± 0.19 and 5.64 ± 0.1.
For DAFWWAVVTMTTVGYGDMHPVTIG [KCNA3], the protein stability index was found to be 3.67 ± 0.52 under setting [1] and 3.17 ± 0.31 under setting [2].
In the case of SWQDLKDHMREAGDVCYADVYRDG [SRSF1], the protein stability index by setting is: under setting [1], 3.96 ± 0.68; under setting [2], 4.21 ± 0.12.
For IKSHSSLPPNNSYADFERFSKVLE [DAPK3], in that order: 2.81 ± 0.22 and 2.96 ± 0.39.
The matching figures for KIRPDSSRPELLQPLNFVRFYLPL [GLT8D2]: 2.19 ± 0.42 and 2.17 ± 0.18.
ALQEYSSISEKLSSTNFAMKRDVQ [C8orf76]: the protein stability index is, setting by setting: under setting [1], 3.26 ± 0.18; under setting [2], 3.48 ± 0.43.
For RYLEAEFKKGNRYIRCQKEVGKSF [SMG5], in that order: 2.57 ± 0.71 and 2.29 ± 0.21.
Consider GIAVWNMDVSREEAPQWLESDSCQ [WDFY1], for which the protein stability index under setting [1] came out at 3.81 ± 0.081 and the protein stability index under setting [2] was 3.74 ± 0.28.
The matching figures for RGFMEMNGRGELVESLKRFCASTR [AUP1]: 2.54 ± 0.3 and 2.73 ± 0.18.
As to SSLDLSYYPTSSSTSFMSSSSSSS [EMD], the protein stability index turned out to be 3.99 ± 0.06 under setting [1] and 3.84 ± 0.34 under setting [2].
Consider GPEPKDKGSLPQPPITEVESQVFS [ZNF232], for which the protein stability index runs as follows: under setting [1], 5.51 ± 0.078; under setting [2], 5.36 ± 0.23.
Regarding VCISTKTQCSEEDQCKINKQIYNL [FEM1B], the protein stability index stood at 3.22 ± 0.19 under setting [1] and 3.33 ± 0.25 under setting [2].
For PPRGPLAKHRLVPPAQGRVSRRLS [TRIM9], in that order: 4.21 ± 0.27 and 4.16 ± 0.49.
The matching figures for NIPMETEETHLEETTESQQNGEEG [SMARCE1]: 5.39 ± 0.5 and 5.6 ± 0.21.
Turning to LGVGLLTFASLETVGIYFGLVYRI [TMEM40], the protein stability index came to 3.17 ± 0.25 under setting [1] and 3.29 ± 0.22 under setting [2].
MAGAIAQGLIRAGKVEAQHILASA [PYCR3] showed a protein stability index under setting [1] of 2.18 ± 0.18 and a protein stability index under setting [2] of 2.31 ± 0.32.
For QQTGDDDEVDDFEDFIFSHFFGDK [PBXIP1], the protein stability index was 4.71 ± 0.51 under setting [1] and 4.9 ± 0.23 under setting [2].
Turning to QALAGASSGRELGRPKELQPKKLH [ZNF263], the protein stability index is, setting by setting: under setting [1], 5.01 ± 0.46; under setting [2], 4.82 ± 0.14.
The matching figures for DWMAAMFGGPFVESSTREVVFPYT [RHOBTB2]: 2.23 ± 0.3 and 2.04 ± 0.47.
For LNGENSDIKICALGEEWSLHKIYL [GMCL1], in that order: 2.14 ± 0.32 and 1.94 ± 0.41.
The matching figures for ETRDWGGAQFEGEKGRALQIRDWR [ZSWIM9]: 3.63 ± 0.32 and 3.84 ± 0.15.
ISPWNLPLYLLTWKIAPAMAAGNT [ALDH8A1]: the protein stability index was 3.06 ± 0.53 under setting [1] and 3.05 ± 0.62 under setting [2].
GGSCRAPSTYGGGLSVSSRFSSGG [KRT16]: the protein stability index is, setting by setting: under setting [1], 2.97 ± 0.27; under setting [2], 3.02 ± 0.15.
The matching figures for YVPSSESFIIYLKNIVIADFVMSL [P2RY14]: 2.89 ± 0.96 and 2.74 ± 0.78.
The matching figures for RWSLISLSNKNGKNVELKFVDSIR [TENT5C]: 2.39 ± 0.26 and 2.36 ± 0.44.
In the case of RIRIDDEPANLDILDTAGQAEFTA [RIT1], the protein stability index was 4.62 ± 0.23 under setting [1] and 4.77 ± 0.11 under setting [2].
The matching figures for LYSSSLGGGVATSPMLIVFHGKYS [GLT8D2]: 2.38 ± 0.48 and 2.44 ± 0.52.
Turning to LRPRPASSISLPIGHLGCISLLS [DMRTC1], the protein stability index amounted to 2.47 ± 0.41 (treatment: DMSO, c terminus: native) and 2.43 ± 0.33 (treatment: MLN4924 1 uM, 8 h, c terminus: native).
AAVVTSPPPTTAPHKERYFDRVDE [ADD1]: the protein stability index came to 4.77 ± 0.44 under setting [1] and 4.73 ± 0.34 under setting [2].
For QAELSYKKVSEGPPLRLWRSVIEV [DLC1], in that order: 2.19 ± 0.31 and 2.49 ± 0.43.
The matching figures for LFNILAKFNGITEKEYKTYKENFL [USP39]: 2.16 ± 0.43 and 2.5 ± 0.25.
On to GYYSEKLEAIQLDGEILFSLLQKV [TBC1D10A], for which the protein stability index runs as follows: under setting [1], 2.44 ± 0.59; under setting [2], 2.53 ± 0.32.
For NDSGICMSPESYLGSPQHSPSTRG [ATF4], in that order: 4.53 ± 0.29 and 4.86 ± 0.15.
RENMSDGDTSATESGDEVPVELYT [KMT2E]: the protein stability index by setting is: under setting [1], 5.32 ± 0.21; under setting [2], 5.21 ± 0.22.
On to FEAPPLQGQAAAPASGSGADSEPA [TRIM55], for which the protein stability index under setting [1] came out at 5.65 ± 0.28 and the protein stability index under setting [2] was determined as 5.53 ± 0.1.
Consider SVKIIFKLPNDSRVERRFHFSQSL [FAF2], for which the protein stability index is 2.72 ± 0.67 under setting [1] and 2.76 ± 0.55 under setting [2].
On to LPRRDFQRQVWLLFEYPESSGPAR [KCNA3], for which the protein stability index was determined as 2.32 ± 0.26 under setting [1] and 2.71 ± 0.58 under setting [2].
For VASLPLDQSDEGSSSQKEESPSTL [MAGEA10], in that order: 5.65 ± 0.14 and 5.64 ± 0.14.
For the sequence LMRHMATHSPQKSHQCAHCEKTFN [PLAGL1], the protein stability index runs as follows: under setting [1], 3.24 ± 0.3; under setting [2], 3.2 ± 0.28.
In the case of ILAAACESETRKAAKRMRLEIYQS [NOL4L], the protein stability index under setting [1] came to 2.47 ± 0.24 and the protein stability index under setting [2] was 2.54 ± 0.05.
The matching figures for FESLPENASHKLEVRLVPVSFEDP [ATE1]: 3.68 ± 0.13 and 3.68 ± 0.31.
For TFHHPTYGSCYTVDGVWTAQRPGI [SCNN1D], in that order: 2.61 ± 0.41 and 2.61 ± 0.29.
The matching figures for QYRPSDLLCPETYVWVPIEQCLPS [ATE1]: 2.28 ± 0.23 and 2.47 ± 0.28.
As for MHLNFMDEKDRIITAFYNEARARA [DNAJC4], the protein stability index is 2.92 ± 0.35 under setting [1] and 2.98 ± 0.19 under setting [2].
The matching figures for NLGGGDPKGWRQLAQEAEAWLNYP [OAS1]: 3.22 ± 0.26 and 3.37 ± 0.26.
The matching figures for QVEALAAAGVDHVILAVSYMSQVL [GMPPB]: 2.92 ± 0.65 and 2.48 ± 0.45.
The matching figures for QYQANKVTHTLTMRQRISRVEESA [PPEF2]: 3.65 ± 0.16 and 3.77 ± 0.16.
Consider ADSGADPKGEPGSKQSPPMASSPI [FBF1], for which the protein stability index is, setting by setting: under setting [1], 5.44 ± 0.26; under setting [2], 5.51 ± 0.15.
For PVGLVMEYMETGSLEKLLASEPLP [RIPK4], in that order: 3.46 ± 0.48 and 3.13 ± 0.22.
The matching figures for VDAAYANKVELQAKVESMDQEIKF [KRT71]: 4.88 ± 0.41 and 4.87 ± 0.21.
For LKGTLVSTLKEVKPTVFIGVPQIW [ACSBG2], in that order: 2.65 ± 0.2 and 3.5 ± 0.61.
With LVKDNPQRSYFLRIFDIKDGKLLW [WASL], the protein stability index is, setting by setting: under setting [1], 1.99 ± 0.28; under setting [2], 2.05 ± 0.36.
The matching figures for FNGNYKVDSPKNFNIAGTVVKYRR [ADAMTSL2]: 3.14 ± 0.23 and 3.44 ± 0.36.
